This is an account of results in publication doi:10.1101/2020.11.23.395327.

Assay [1] has as its target PII(S49E), phosphomimetic variant (Synechocystis sp. PCC 6803) (UniProt Q55247). Kind of assay: BLI.
For assay [2], the target named is PII(WT)-His, signaling protein PII from Synechocystis sp. PCC 6803 (Synechocystis sp. PCC 6803) (UniProt Q55247). Description: BLI.

What is called Kd is the equilibrium constant for the complex coming apart. Higher therefore signals lower affinity. Consider “GST-PirA (GST-tagged PII-interacting regulator of arginine synthesis, Ssr0692) (natural protein)”, for which the Kd worked out at 2500 nM in assay [1] and 2900 nM in assay [2].
tag-free PirA (natural protein) came in with a binding signal, fold lower than that of GST-PirA in assay [2] of 6 fold.
